T1: human p55 TNF receptor (human, UniProt P19438 30-211, limits assumed)
T1 construct: also called TNF Receptor 1; TNFR1
T1 sequence (looked up): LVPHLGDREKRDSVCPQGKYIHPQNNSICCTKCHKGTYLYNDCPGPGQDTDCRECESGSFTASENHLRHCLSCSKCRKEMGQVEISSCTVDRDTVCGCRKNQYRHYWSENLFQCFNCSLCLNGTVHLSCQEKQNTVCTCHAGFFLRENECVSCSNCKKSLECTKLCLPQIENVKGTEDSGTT

B1: TAR2h10-55 (other)
VH: STEVQLLESGGGLVQPGGSLRLSCAASGFPFEWYWMGWVRQAPGKGLEWVSAISGSGDSTYYADSVKGRFTISRDNSKNTLYQQMNSLRAEDAAVYYCAKVKLGGGPNFGYRGQGTLVTVSSAAAEQKLISEEDLN
notes: expressed from pDOM5; also called TAR2h10-55 dAb
B2: TAR3h-23 (other)
VH: STEVQLLESGGGLVQPGGSLRLSCAASGFTFYDYNMSWVRQAPGKGLEWVSTITHTGGVTYYADSVKGRFTISRDNSKNTLYLQMNSLRAEDTAVYYCAKQNPSYQFDYWGQGTLVTVSSAAAEQKLISEEDLN
notes: anti-HSA VH dAb expressed from pDOM5
B3: TAR3h-26 (other)
VH: STEVQLLESGGGLVQPGGSLRLSCTASGFTFDEYNMSWVRQAPGKGLEWVSTILPHGDRTYYADSVKGRFTISRDNSKNTLYLQMNSLRAEDTAVYYCAKQDPLYRFDYWGQGTLVTVSSAAAEQKLISEEDLN
notes: as for B2
B4: TAR3h-22 (other)
VH: STEVQLLESGGGLVQPGGSLRLSCAASGFTFSKYWMSWVRQAPGKGLEWVSSIDFMGPHTYYADSVKGRFTISRDNSKNTLYLQMNSLRAEDTAVYYCAKGRTSMLPMKGKFDYWGQGTLVTVSSAAAEQKLISEEDLN
notes: as for B2

Key:
[1] = target: T1, human p55 TNF receptor
[2] = target: T2, human serum albumin (human, UniProt P02768 25-609); assay: not stated; IC50/Kd, called Kd in paragraph 434
T2 construct: also called HSA

Row | Binder | Kd [1] [nM] | Kd [2] [nM]
1 | B1 | 10 to 15 | 
2 | B2 |  | 800
3 | B3 |  | 200
4 | B4 |  | 50

From patent publication US20090148434A1 (published 2009)
